The values that follow come from publication PMC8490876, “Functional Characterization of a L-2-Haloacid Dehalogenase From Zobellia galactanivorans Dsij^T Suggests a Role in Haloacetic Acid Catabolism and a Wide Distribution in Marine Environments” (Frontiers in Microbiology, 2021).

In general, Km refers to the substrate concentration at which the rate is half of its maximum.

Substrate in data set [1]: O=C(O)CI
Nature of the data set: purified protein. In kind it is biochemical, Zobellia galactanivorans. To be noted: 20 °C, 1 mM HEPES, 1 mM EDTA, 20 mM sodium sulfate, 56 μM phenol red, pH 8.2 (initial), 0.3 mg/ml enzyme.

Substrate in data set [2]: O=C(O)CBr
Nature of the data set: purified protein. In kind it is biochemical, Zobellia galactanivorans. To be noted: 20 °C, 1 mM HEPES, 1 mM EDTA, 20 mM sodium sulfate, 56 μM phenol red, pH 8.2 (initial), 0.3 mg/ml enzyme.

B1: ZgHAD (Zobellia galactanivorans) (protein)
chain: MSAKVKKPELLIFDVNETLLDMGPLENAINESLNSEHAFSLWFRTLLHYSLTETLTGNYVDFGTIGKATLKMTMRKFGKNLSEDRLDAILGNIKKLPAHEDVKEGLKMLKEAQIKLVALSNSNGKLLNAQLQFAGLADYFDAIFSVEAVGRYKPELASYRAVLETMKVPAENTMMVAAHGWDILGAKRAGLRTAFVAREGHAIYPLDGTPELEAKTVLEVARTLLKN
notes: recombinant, pFO4 vector, E. coli BL21 (DE3); homodimer in solution
B1: the Km in “purified protein [1]” is 310 µM; in the data set “purified protein [2]”, 460 µM.
